Data as given in paper PMC2572732, “Structural Coupling of SH2-Kinase Domains Links Fes and Abl Substrate Recognition and Kinase Activation” (Cell, 2008).

What follows are molecules tested on Fes; GST-cortactin (residues 382–550) (assay: In vivo kinase assay: Fes autophosphorylation and GST-cortactin phosphorylation in transfected HEK293T cells). Conditions: full-length Flag-Fes, HEK293T, 24 hr, western blot anti-pTyr; in words.
Format: cell-based, human
Excerpt: To pursue the relevance of the observed interdomain interactions, we studied the effects of mutating residues in the SH2-kinase interface on human Fes activity. To this end, we monitored Fes autophosphorylation and transphosphorylation activity in transfected cells, using cortactin (residues 382–550) fused to GST as an exogenous substrate (Figures 2A and 2B). In an effort to perturb the close interaction between the SH2 and kinase domains, we mutated the conserved glycine residue (G463) located in the tightly packed interface between the SH2 N terminus and the kinase β4/β5 loop to valine (mutant G/V). Introducing this bulky side chain would be expected to sterically hinder alignment of the SH2 and kinase domains, resulting in an altered domain packing. Wild-type (WT) and G/V mutant full-length human Fes, each with an N-terminal Flag epitope, were expressed in HEK293T cells together with GST-cortactin.
Wild-type p130^Gag-Fps and the RX15m and AX9m mutants ([Stone et al., 1984]) were subcloned into the vector pRK5-myc ([Winberg et al., 2000]). Full-length human Fes was cloned into the vector pCMV7.1-3xFlag (Sigma, St. Louis, MO). Site-directed mutagenesis was performed using the QuickChange® II XL Kit (Stratagene, La Jolla, CA) following the manufacturer's directions. A GST-tagged C-terminal fragment of human cortactin (residues 382–550, accession Q14247) was prepared by PCR from cDNA (accession BC008799) and cloned into pEBG vector (gift from C. Duckett, University of Michigan Medical School, Ann Arbor).
HEK293T cells were maintained in Dulbecco's modified Eagle's medium supplemented with 10% (vol/vol) fetal bovine serum, 100 units/ml penicillin G sodium, and 100 μg/ml streptomycin and incubated at 37°C, 5% CO2.
Flag-tagged Fes or Myc-tagged p130^Gag-Fps and mutants thereof were cotransfected with GST-cortactin into HEK293T cells. After 24 hr, cells were lysed with NP-40 cell lysis buffer (50 mM Tris-HCl [pH 7.5], 150 mM NaCl, 1% NP-40, and 1 mM EDTA) that contained 1 mM phenylmethylsulfonyl fluoride, 10 μg/ml leupeptin, 10 μg/ml aprotinin, and 10 μg/ml pepstatin A. Cell lysates, normalized for protein concentration, were used in anti-Flag M2 antibody-agarose (Sigma) or anti-Myc antibody immunoprecipitations or glutathione sepharose affinity precipitations. Associated proteins were resolved using SDS-PAGE and analyzed by western blotting using anti-Flag M2 (Sigma), anti-c-Myc 9E10 (Santa Cruz), HRP-conjugated anti-GST (Santa Cruz), or anti-pTyr 4G10 (Upstate) antibodies.

Molecule | Fes kinase activity (autophosphorylation and cortactin phosphorylation)
EE/KK: Fes double mutant, E469 and E472 to lysine (protein) WYHGAIPRAKVAKLLVHSGDFLVRESQGKQEYVLSVLWDGLPRHFIIQSLDNLYRLEGEGFPSIPLLIDHLLSTQQPLTKKSGVVLHRAV | strongly reduced Fes kinase activity
WT: Wild-type full-length human Fes with N-terminal Flag epitope (protein, UniProt P07332 1-822, looked up, full-length N-terminal Flag tag) MGFSSELCSPQGHGVLQQMQEAELRLLEGMRKWMAQRVKSDREYAGLLHHMSLQDSGGQSRAISPDSPISQSWAEITSQTEGLSRLLRQHAEDLNSGPLSKLSLLIRERQQLRKTYSEQWQQLQQELTKTHSQDIEKLKSQYRALARDSAQAKRKYQEASKDKDRDKAKDKYVRSLWKLFAHHNRYVLGVRAAQLHHQHHHQLLLPGLLRSLQDLHEEMACILKEILQEYLEISSLVQDEVVAIHREMAAAAARIQPEAEYQGFLRQYGSAPDVPPCVTFDESLLEEGEPLEPGELQLNELTVESVQHTLTSVTDELAVATEMVFRRQEMVTQLQQELRNEEENTHPRERVQLLGKRQVLQEALQGLQVALCSQAKLQAQQELLQTKLEHLGPGEPPPVLLLQDDRHSTSSSEQEREGGRTPTLEILKSHISGIFRPKFSLPPPLQLIPEVQKPLHEQLWYHGAIPRAEVAELLVHSGDFLVRESQGKQEYVLSVLWDGLPRHFIIQSLDNLYRLEGEGFPSIPLLIDHLLSTQQPLTKKSGVVLHRAVPKDKWVLNHEDLVLGEQIGRGNFGEVFSGRLRADNTLVAVKSCRETLPPDLKAKFLQEARILKQYSHPNIVRLIGVCTQKQPIYIVMELVQGGDFLTFLRTEGARLRVKTLLQMVGDAAAGMEYLESKCCIHRDLAARNCLVTEKNVLKISDFGMSREEADGVYAASGGLRQVPVKWTAPEALNYGRYSSESDVWSFGILLWETFSLGASPYPNLSNQQTREFVEKGGRLPCPELCPDAVFRLMEQCWAYEPGQRPSFSTIYQELQSIRKRHR | active
E472K: Fes E472K mutant (protein, UniProt P07332 1-822, looked up, variant E472K) Tyrosine-protein kinase …: MGFSSELCSPQGHGVLQQMQEAELRLLEGMRKWMAQRVKSDREYAGLLHHMSLQDSGGQSRAISPDSPISQSWAEITSQTEGLSRLLRQHAEDLNSGPLSKLSLLIRERQQLRKTYSEQWQQLQQELTKTHSQDIEKLKSQYRALARDSAQAKRKYQEASKDKDRDKAKDKYVRSLWKLFAHHNRYVLGVRAAQLHHQHHHQLLLPGLLRSLQDLHEEMACILKEILQEYLEISSLVQDEVVAIHREMAAAAARIQPEAEYQGFLRQYGSAPDVPPCVTFDESLLEEGEPLEPGELQLNELTVESVQHTLTSVTDELAVATEMVFRRQEMVTQLQQELRNEEENTHPRERVQLLGKRQVLQEALQGLQVALCSQAKLQAQQELLQTKLEHLGPGEPPPVLLLQDDRHSTSSSEQEREGGRTPTLEILKSHISGIFRPKFSLPPPLQLIPEVQKPLHEQLWYHGAIPRAEVAKLLVHSGDFLVRESQGKQEYVLSVLWDGLPRHFIIQSLDNLYRLEGEGFPSIPLLIDHLLSTQQPLTKKSGVVLHRAVPKDKWVLNHEDLVLGEQIGRGNFGEVFSGRLRADNTLVAVKSCRETLPPDLKAKFLQEARILKQYSHPNIVRLIGVCTQKQPIYIVMELVQGGDFLTFLRTEGARLRVKTLLQMVGDAAAGMEYLESKCCIHRDLAARNCLVTEKNVLKISDFGMSREEADGVYAASGGLRQVPVKWTAPEALNYGRYSSESDVWSFGILLWETFSLGASPYPNLSNQQTREFVEKGGRLPCPELCPDAVFRLMEQCWAYEPGQRPSFSTIYQELQSIRKRHR | not significantly impaired
E469K: Fes E469K mutant (protein, UniProt P07332 1-822, looked up, variant E469K) Tyrosine-protein kinase …: MGFSSELCSPQGHGVLQQMQEAELRLLEGMRKWMAQRVKSDREYAGLLHHMSLQDSGGQSRAISPDSPISQSWAEITSQTEGLSRLLRQHAEDLNSGPLSKLSLLIRERQQLRKTYSEQWQQLQQELTKTHSQDIEKLKSQYRALARDSAQAKRKYQEASKDKDRDKAKDKYVRSLWKLFAHHNRYVLGVRAAQLHHQHHHQLLLPGLLRSLQDLHEEMACILKEILQEYLEISSLVQDEVVAIHREMAAAAARIQPEAEYQGFLRQYGSAPDVPPCVTFDESLLEEGEPLEPGELQLNELTVESVQHTLTSVTDELAVATEMVFRRQEMVTQLQQELRNEEENTHPRERVQLLGKRQVLQEALQGLQVALCSQAKLQAQQELLQTKLEHLGPGEPPPVLLLQDDRHSTSSSEQEREGGRTPTLEILKSHISGIFRPKFSLPPPLQLIPEVQKPLHEQLWYHGAIPRAKVAELLVHSGDFLVRESQGKQEYVLSVLWDGLPRHFIIQSLDNLYRLEGEGFPSIPLLIDHLLSTQQPLTKKSGVVLHRAVPKDKWVLNHEDLVLGEQIGRGNFGEVFSGRLRADNTLVAVKSCRETLPPDLKAKFLQEARILKQYSHPNIVRLIGVCTQKQPIYIVMELVQGGDFLTFLRTEGARLRVKTLLQMVGDAAAGMEYLESKCCIHRDLAARNCLVTEKNVLKISDFGMSREEADGVYAASGGLRQVPVKWTAPEALNYGRYSSESDVWSFGILLWETFSLGASPYPNLSNQQTREFVEKGGRLPCPELCPDAVFRLMEQCWAYEPGQRPSFSTIYQELQSIRKRHR | reduced tyrosine kinase activity
G/V: Fes mutant, conserved glycine residue (G463) mutated to valine (protein, UniProt P07332 1-822, looked up, variant G463V) Tyrosine-protein kinase …: MGFSSELCSPQGHGVLQQMQEAELRLLEGMRKWMAQRVKSDREYAGLLHHMSLQDSGGQSRAISPDSPISQSWAEITSQTEGLSRLLRQHAEDLNSGPLSKLSLLIRERQQLRKTYSEQWQQLQQELTKTHSQDIEKLKSQYRALARDSAQAKRKYQEASKDKDRDKAKDKYVRSLWKLFAHHNRYVLGVRAAQLHHQHHHQLLLPGLLRSLQDLHEEMACILKEILQEYLEISSLVQDEVVAIHREMAAAAARIQPEAEYQGFLRQYGSAPDVPPCVTFDESLLEEGEPLEPGELQLNELTVESVQHTLTSVTDELAVATEMVFRRQEMVTQLQQELRNEEENTHPRERVQLLGKRQVLQEALQGLQVALCSQAKLQAQQELLQTKLEHLGPGEPPPVLLLQDDRHSTSSSEQEREGGRTPTLEILKSHISGIFRPKFSLPPPLQLIPEVQKPLHEQLWYHVAIPRAEVAELLVHSGDFLVRESQGKQEYVLSVLWDGLPRHFIIQSLDNLYRLEGEGFPSIPLLIDHLLSTQQPLTKKSGVVLHRAVPKDKWVLNHEDLVLGEQIGRGNFGEVFSGRLRADNTLVAVKSCRETLPPDLKAKFLQEARILKQYSHPNIVRLIGVCTQKQPIYIVMELVQGGDFLTFLRTEGARLRVKTLLQMVGDAAAGMEYLESKCCIHRDLAARNCLVTEKNVLKISDFGMSREEADGVYAASGGLRQVPVKWTAPEALNYGRYSSESDVWSFGILLWETFSLGASPYPNLSNQQTREFVEKGGRLPCPELCPDAVFRLMEQCWAYEPGQRPSFSTIYQELQSIRKRHR | completely inactive
EER/KKE: Fes triple mutant: EE/KK plus R609 in αC helix to glutamate (protein, UniProt P07332 1-822, looked up, variant E469K E472K R609E) Tyrosine-protein kinase …: MGFSSELCSPQGHGVLQQMQEAELRLLEGMRKWMAQRVKSDREYAGLLHHMSLQDSGGQSRAISPDSPISQSWAEITSQTEGLSRLLRQHAEDLNSGPLSKLSLLIRERQQLRKTYSEQWQQLQQELTKTHSQDIEKLKSQYRALARDSAQAKRKYQEASKDKDRDKAKDKYVRSLWKLFAHHNRYVLGVRAAQLHHQHHHQLLLPGLLRSLQDLHEEMACILKEILQEYLEISSLVQDEVVAIHREMAAAAARIQPEAEYQGFLRQYGSAPDVPPCVTFDESLLEEGEPLEPGELQLNELTVESVQHTLTSVTDELAVATEMVFRRQEMVTQLQQELRNEEENTHPRERVQLLGKRQVLQEALQGLQVALCSQAKLQAQQELLQTKLEHLGPGEPPPVLLLQDDRHSTSSSEQEREGGRTPTLEILKSHISGIFRPKFSLPPPLQLIPEVQKPLHEQLWYHGAIPRAKVAKLLVHSGDFLVRESQGKQEYVLSVLWDGLPRHFIIQSLDNLYRLEGEGFPSIPLLIDHLLSTQQPLTKKSGVVLHRAVPKDKWVLNHEDLVLGEQIGRGNFGEVFSGRLRADNTLVAVKSCRETLPPDLKAKFLQEAEILKQYSHPNIVRLIGVCTQKQPIYIVMELVQGGDFLTFLRTEGARLRVKTLLQMVGDAAAGMEYLESKCCIHRDLAARNCLVTEKNVLKISDFGMSREEADGVYAASGGLRQVPVKWTAPEALNYGRYSSESDVWSFGILLWETFSLGASPYPNLSNQQTREFVEKGGRLPCPELCPDAVFRLMEQCWAYEPGQRPSFSTIYQELQSIRKRHR | regained kinase activity to a level approaching wild-type
